The target in assay [1] is T1, SARS-CoV-2 S2 (aa686-1208) (Wuhan) (SARS-CoV-2 Wuhan, UniProt P0DTC2 686-1208).
T1 construct: NRC; FLAG, 6xHis tags
The assay is described as follows: SPR; 'nd' read as spanning the three S1 columns, the dashes as the S2 block.

For assay [2], the target named is SARS-CoV-2 RBD (aa319-541) (Wuhan), monomeric (SARS-CoV-2 Wuhan, UniProt P0DTC2 319-541). The assay is described as follows: SPR, monomeric RBD over captured VHH-Fc.
For assay [3], the target named is Human SARS-CoV-2_Wuhan S (SmT1) (SARS-CoV-2 (Wuhan), UniProt P0DTC2 14-1208). Briefly: tandem SPR, immobilized S, orientation 1: VHH alone.
Assay [4] has as its target T1, SARS-CoV-2 S2 (aa686-1208) (Wuhan). Briefly: SPR single-cycle kinetics, VHH over immobilized S2 [cont.].
Assay [5] has as its target SARS-CoV-2 S1-NTD (aa16-305) (SARS-CoV-2 Wuhan, UniProt P0DTC2 16-305). Briefly: ELISA, coated antigen.
Assay [6] concerns the target T2, SARS-CoV-2 S1 (aa16-685) (Wuhan) (SARS-CoV-2 Wuhan, UniProt P0DTC2 16-685).
T2 construct: NRC; FLAG, 6xHis tags
The assay is described as follows: ELISA, coated antigen, apparent EC50.

The target in assay [7] is T3, SARS-CoV-2 spike trimer S (Wuhan, SmT1) (SARS-CoV-2 Wuhan).
T3 construct: extracellular domain
The assay is described as follows: ELISA, coated antigen, apparent EC50.

The text below walks through data of patent US20240270826A1 (NATIONAL RESEARCH COUNCIL OF CANADA, published 2024).

B1: NRCoV2-12 VHH-Fc (Fc fusion)
chain: EVQLQQSGGGLVQAGGSLRLSCAASGRTFRNYVMGWFRQAPQAPGKDHEFVAAISWGGTEIYYADSVKGRFTISRDNAKNTVYLQMNSLKPEDTAVYYCAADRGLSYYYTRTTEYNYWGQGTQVTVSS
notes: bivalent
With B1, the binding result in assay [1] is on record as “no binding”. Also, in assay [2], the Kd turned out to be 0.0486 nM, the koff is 3.69e-05 s⁻¹ and the kon stood at 760000 M⁻¹ s⁻¹.

B2: NRCoV2-07 VHH (VHH)
VHH: QVQLVQSGGGLVQPGGSLRLSCAASGVTLDYYAIGWFRQAPGKEREAVSCISSNGRRNHYVASVRGRFTISRDNAKSTVYLQMNSLKPEDTAVYYCAAVQDVHGDNYYCTSPNEYNVWGQGTQVTVSS
For the molecule B2, the “End 1st inj (RU)” value in assay [3] is 19.1 RU. Moreover, the binding result in assay [4] is recorded as “no binding (tested: 20 nM)”.

B3: NRCoV2-02 VHH-Fc (Fc fusion)
chain: EVQLVESGGGLVQAGGSLRLSCAASGFTFSNYAMNWVRQAPGKGLEWVSGISGRGDDTRYADSVKGRFTISRDNAKNTLFLQMRSLRPEDTGVYRCTKGPDLYYFGSGYSDRGQGTQVTVSS
notes: bivalent
For B3, the binding result in assay [5] is “no binding”. In addition, the 50% effective concentration (EC50) in assay [6] is 0.11 nM; in assay [7], 0.1 nM.
